Experimental data: publication PMC6638984 (2019)

Biological target: T1, BS69 coiled-coil MYND domain (BS69_(CC-MYND), amino acids 480-602) (human, UniProt Q15326 480-602)
T1 chain: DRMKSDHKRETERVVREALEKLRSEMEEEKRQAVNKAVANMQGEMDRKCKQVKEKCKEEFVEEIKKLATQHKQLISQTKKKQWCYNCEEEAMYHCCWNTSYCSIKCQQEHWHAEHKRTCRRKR
Assay: ITC

B1: type 1 EBNA2 polypeptide T1 EBNA2_(381-455) (domain or fragment)
chain: SMPELSPVLGLHQGQGAGDSPTPGPSNAAPVCRNSHTATPNVSPIHEPESHNSPEAPILFPDDWYPPSIDPADLD
With B1 the Kd was 730 nM.
